Tests used:
[1] = molecular target: human LILRB2 expressed on cells (human) (UniProt Q8N423); assay: flow cytometry, human whole blood, neutrophils
human LILRA4 (human) = human LILRA4 (human) (UniProt P59901); assay: flow cytometry, LILRA4 CHOs
human LILRA1 (human) = human LILRA1 (human) (UniProt O75019); assay: flow cytometry, LILRA1 CHOs
[2] = molecular target: human LILRB2 expressed on cells (human) (UniProt Q8N423); assay: flow cytometry, human whole blood, monocytes
[3] = molecular target: Cyno Monocytes / Cyno Neutrophils (Macaca fascicularis); assay: flow cytometry, cyno whole blood, monocytes
[4] = molecular target: Rhesus Monocytes / Rhesus Neutrophils (Macaca mulatta); assay: flow cytometry, rhesus whole blood, neutrophils
[5] = molecular target: Rhesus Monocytes / Rhesus Neutrophils (Macaca mulatta); assay: flow cytometry, rhesus whole blood, monocytes
[6] = molecular target: Cyno Monocytes / Cyno Neutrophils (Macaca fascicularis); assay: flow cytometry, cyno whole blood, neutrophils

Chain of human LILRB2 expressed on cells (human) (Q8N423 other isoform, or with tags, fused parts or gaps limits assumed): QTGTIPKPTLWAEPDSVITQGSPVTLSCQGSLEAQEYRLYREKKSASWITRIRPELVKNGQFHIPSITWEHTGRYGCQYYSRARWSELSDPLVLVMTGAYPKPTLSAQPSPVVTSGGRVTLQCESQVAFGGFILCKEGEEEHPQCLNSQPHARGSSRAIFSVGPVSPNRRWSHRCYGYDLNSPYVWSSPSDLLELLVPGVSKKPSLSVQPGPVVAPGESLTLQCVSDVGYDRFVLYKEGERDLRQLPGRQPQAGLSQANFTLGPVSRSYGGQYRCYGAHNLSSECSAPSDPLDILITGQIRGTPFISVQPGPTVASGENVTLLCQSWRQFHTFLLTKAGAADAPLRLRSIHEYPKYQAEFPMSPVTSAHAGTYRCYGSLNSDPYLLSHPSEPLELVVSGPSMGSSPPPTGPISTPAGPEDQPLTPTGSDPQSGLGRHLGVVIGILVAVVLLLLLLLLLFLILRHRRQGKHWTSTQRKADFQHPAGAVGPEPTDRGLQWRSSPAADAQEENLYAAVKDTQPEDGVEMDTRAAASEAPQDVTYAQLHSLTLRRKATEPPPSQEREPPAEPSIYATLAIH
Chain of human LILRA4 (human) (P59901 other isoform, or with tags, fused parts or gaps limits assumed): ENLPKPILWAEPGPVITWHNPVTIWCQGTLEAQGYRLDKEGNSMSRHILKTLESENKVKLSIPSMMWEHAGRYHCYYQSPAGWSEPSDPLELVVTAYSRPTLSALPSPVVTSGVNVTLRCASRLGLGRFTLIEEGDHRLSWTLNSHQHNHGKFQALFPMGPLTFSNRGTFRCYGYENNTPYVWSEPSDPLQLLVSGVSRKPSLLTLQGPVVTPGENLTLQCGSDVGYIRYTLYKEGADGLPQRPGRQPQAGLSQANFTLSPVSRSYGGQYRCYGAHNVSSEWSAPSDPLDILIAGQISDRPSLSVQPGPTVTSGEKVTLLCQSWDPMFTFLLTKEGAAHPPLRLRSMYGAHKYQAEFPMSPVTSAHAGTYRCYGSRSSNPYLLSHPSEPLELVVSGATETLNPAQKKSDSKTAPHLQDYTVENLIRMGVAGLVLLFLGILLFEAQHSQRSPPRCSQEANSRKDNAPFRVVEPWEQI
Chain of human LILRA1 (human) (O75019 17-489 limits assumed): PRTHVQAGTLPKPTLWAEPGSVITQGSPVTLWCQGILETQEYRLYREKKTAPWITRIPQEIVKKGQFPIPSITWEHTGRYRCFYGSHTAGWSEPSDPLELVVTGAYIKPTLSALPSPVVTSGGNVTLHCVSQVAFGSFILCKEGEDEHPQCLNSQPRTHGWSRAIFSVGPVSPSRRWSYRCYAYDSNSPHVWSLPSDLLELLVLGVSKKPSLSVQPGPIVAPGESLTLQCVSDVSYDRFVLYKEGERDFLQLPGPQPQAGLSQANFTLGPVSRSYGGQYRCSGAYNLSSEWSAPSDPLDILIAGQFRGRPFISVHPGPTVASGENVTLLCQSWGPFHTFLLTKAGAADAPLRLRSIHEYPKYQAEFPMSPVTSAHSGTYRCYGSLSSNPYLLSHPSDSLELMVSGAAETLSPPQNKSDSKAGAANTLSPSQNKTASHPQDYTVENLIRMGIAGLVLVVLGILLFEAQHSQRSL

Human Neutrophils binding (fold over iso) (fold over iso) [1]: 1 | binding (fold over iso) (fold over iso) (human LILRA4 (human)): 1 | binding (fold over iso) (fold over iso) (human LILRA1 (human)): 1 | Human Monocytes binding (fold over iso) (fold over iso) [2]: 1 | Cyno Monocytes binding (fold over iso) (fold over iso) [3]: 1 | Rhesus Neutrophils binding (fold over iso) (fold over iso) [4]: 1 | Rhesus Monocytes binding (fold over iso) (fold over iso) [5]: 1 | Cyno Neutrophils binding (fold over iso) (fold over iso) [6]: 1
Substance: isotype control mAb (antibody)

Reference: patent publication US20200339690A1
